Data taken from the supplement of paper PMC10126150.
± gives the standard deviation of the averaged measurements.

test system: ATP; assay: switch fluorescence ratio, 500 uM ATP over buffer (Cy3 cluster intensity, sum of 5 cycles each) (fold (ratio)); higher = stronger signal-on switching upon ATP binding; sequences stand for … in TCGTCGGCAGCGTCAGATGTGTATAAGAGACAGTTTTTTTTTTTTTTTTTTTTTTTTT…TC; conditions: aptamer strand: ATP DNA aptamer (quencher-CACCTGGGGGAGTATTGCGGAGGAAGG + anchor), 100 nM annealed; ATP concentration: 500 uM
In short: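 Between each of five buffer/ATP cycles, the flow-cell was stripped with NaOH and re-annealed. Each cycle imaged Cy3-labelled switching-strand clusters, annealed to 100 nM quencher-labelled ATP aptamer on a modified Illumina MiSeq flow-cell, first in selection buffer and then after 15 min with 500 uM ATP at 22 °C. The fluorescence ratio is summed target-cycle over summed buffer-cycle Cy3 intensity per cluster, averaged per switch-domain sequence, with clusters outside 100-1000 RFU excluded.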
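Note: ATP exposure 15 min at 22 °C before imaging.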

Sequence | switch fluorescence ratio
GCGCGAGGGG | 1.01 ± 0.02
ATAACGAGTC | 1.04 ± 0.15
AAAATAAAG | 0.947 ± 0.077
CCAATGGCAG | 1.155 ± 0.0045
TTCATGGTAT | 0.991 ± 0.031
GCCTGTGGGG | 0.977 ± 0.019
TTATTGTAAG | 0.9675 ± 0.006
CCAGGTGTTG | 3.12 ± 0.44
GGGGTCGGGG | 1.03 ± 0.041
AATCAGCATT | 1.08 ± 0.076
TTTGGCTTGT | 0.9714 ± 0.0068
GCTCGGTTG | 1.01 ± 0.022
GGTGGTTGGC | 1.007 ± 0.0075
GTTTTGTATG | 1.004 ± 0.0044
TTATTACT | 0.981 ± 0.011
AAGAGGAGAG | 1.036 ± 0.0073
GGGTTTTCTG | 0.945 ± 0.017
TTTGGACTGG | 1.01 ± 0.067
ACTCACTGGT | 1.23 ± 0.043
CGTAGGTTTT | 1 ± 0.067
GTCAATTGGA | 0.992 ± 0.013
AAAGGTTCTG | 0.992 ± 0.072
TATCGGGTGG | 1.01 ± 0.097

Sequence | switch fluorescence ratio
TGTGGGGTTG | 0.994 ± 0.033
GATGCGAAAT | 1.06 ± 0.023
TTTATGAAAG | 0.97 ± 0.05
GTTGCGTCTA | 1.04 ± 0.033
TTTCGGTAGT | 0.995 ± 0.026
ATCTATCGTG | 0.991 ± 0.021
GGCTGAAAAA | 0.915 ± 0.056
GCGGGGTTGC | 1.03 ± 0.033
ACACTCTTGA | 1.03 ± 0.025
TAGTTAGACG | 1.11 ± 0.1
ATAAGGAACG | 1.01 ± 0.061
TATAGGGTTT | 1.07 ± 0.12
AATTTGTGGC | 0.995 ± 0.034
TCAACGTGCT | 1 ± 0.037
AAGTCTGGGC | 1.01 ± 0.036
TAATTTCTTA | 0.996 ± 0.014
GTGGTCTCCG | 0.982 ± 0.038
TTCTACCTGA | 1.064 ± 0.0086
GATAGTTGGT | 1 ± 0.021
GGGAGTTGGA | 1.02 ± 0.024
GGGTCTTGTG | 0.989 ± 0.022
TTGATTTTGC | 0.993 ± 0.013
TGCAACGGGT | 1.02 ± 0.018

Sequence | switch fluorescence ratio
TCTCTGTGTT | 1.027 ± 0.0019
GAGACGACCA | 1.15 ± 0.029
ACCGGTTAAC | 1.02 ± 0.035
AAAAGTTCGT | 0.983 ± 0.024
AGCATGTCTG | 0.986 ± 0.01
AGGATGCATT | 1.8 ± 1.1
TCCGTCGGGG | 1.01 ± 0.033
CCTGGTGACG | 1.035 ± 0.002
AAGCATGGGA | 1.01 ± 0.022
TTTTGTTTAG | 0.992 ± 0.021
TTTCGGAGAG | 0.989 ± 0.037
TATATATGAA | 1.01 ± 0.015
AAGTCGGATG | 1.04 ± 0.079
TCGAGGGGGT | 0.986 ± 0.054
AAGGTCGTAT | 0.9922 ± 0.009
GTACCCTGGA | 1.03 ± 0.03
GGATATATGG | 1 ± 0.025
CGAAAACTTT | 1.07 ± 0.064
GCTGTTTTGT | 1.004 ± 0.0092
TTTTTAAATC | 1 ± 0.044
GGTTAGGGCG | 1.0062 ± 0.00068
ATGTAATAGC | 0.989 ± 0.022
GAGATTAATT | 0.967 ± 0.016

Sequence | switch fluorescence ratio
AGTACGTTAT | 1.14 ± 0.026
CTGACGTTTT | 1.18 ± 0.2
AAAGTAGGAG | 0.98 ± 0.048
GTTGTGAGCG | 1.01 ± 0.048
TTGGGACGAC | 1.022 ± 0.0084
TCGGGTATCG | 0.976 ± 0.037
TTATAAGCAG | 1.02 ± 0.017
ATATAACAGG | 1.03 ± 0.048
GCCAGTTTGC | 0.998 ± 0.015
CTGACGGTAG | 1.03 ± 0.022
TGTGACGGGG | 1.02 ± 0.035
GGGCAAGAAT | 0.997 ± 0.017
TTAAGTACGA | 1.27 ± 0.041
GAGACCCTAT | 1.029 ± 0.0074
ATAAATGTGT | 1.01 ± 0.041
AGTATGATTT | 0.98 ± 0.027
TAGGTGGACT | 1.01 ± 0.042
TCTTGAACTT | 1 ± 0.018
GTTTTCAGTA | 0.982 ± 0.0022
GGGTTTCAGG | 1.017 ± 0.0021
ATAAGTGGG | 0.983 ± 0.018
GGAGGAGATA | 0.995 ± 0.02
TTCACGAAGA | 1 ± 0.0015

Sequence | switch fluorescence ratio
ATATGGATGT | 0.997 ± 0.029
ACACCTGAGT | 1.16 ± 0.011
CAAAAGTTGG | 0.9923 ± 0.0052
TCATAGGTTT | 0.974 ± 0.038
GATCTATGTT | 0.996 ± 0.018
GACGACGATG | 1.016 ± 0.0022
AGTGCAAGAT | 1.08 ± 0.028
GAAGTAACAG | 1.03 ± 0.027
AAACCAGCCC | 1.21 ± 0.21
CCACCATTTT | 1.13 ± 0.12
CGTATTTGAG | 1 ± 0.037
TTGTCTGTTA | 1 ± 0.043
TTATAATGGG | 0.988 ± 0.025
TTTTTCAATG | 0.979 ± 0.042
CGAGTTGCTG | 0.988 ± 0.11
GAGGGCCTTT | 0.968 ± 0.048
TCGGTGGTGG | 0.997 ± 0.019
TGGGGGTACG | 1.028 ± 0.0016
TTCGCTGTAT | 1.01 ± 0.011
GCGCCAAGGA | 1.08 ± 0.09
CATGAGGTTC | 0.974 ± 0.03
AAAATATGCT | 1 ± 0.049
TGCAATGTAG | 1.082 ± 0.0029

Sequence | switch fluorescence ratio
CCGGGTGGTT | 1.02 ± 0.08
CAAGACAGCT | 1.02 ± 0.031
TCTAGTGGCA | 0.98 ± 0.038
GATGGGGAGG | 0.98 ± 0.032
TTTATGCACC | 1.07 ± 0.017
TGCGCTTGTC | 0.974 ± 0.082
GATACACATG | 1.04 ± 0.021
AGTAAGCGAC | 1.063 ± 0.0014
TCGATGCGTG | 1.01 ± 0.011
GATAGTACGG | 1.01 ± 0.015
CGGTCCTATG | 0.993 ± 0.029
CATTAGGATA | 1.0153 ± 0.00044
GGGTTAGATC | 1.03 ± 0.039
ATTTATTTCT | 1.03 ± 0.064
ATTCATGTTG | 0.996 ± 0.014
AGGGGAGAAC | 0.9758 ± 0.0086
ATTAATCTT | 1.011 ± 0.0016
GATCATTCTG | 0.966 ± 0.036
GTTTTCGCCG | 1.03 ± 0.11
GCAGGTGTTC | 1.14 ± 0.02
GTGGAAGGGT | 1.02 ± 0.042
AATGTTAAGT | 0.994 ± 0.022
ATCTATGGTG | 1.02 ± 0.02

Sequence | switch fluorescence ratio
GGTTTAGCCT | 1.04 ± 0.023
GGTTTATCAA | 1.0008 ± 0.00076
TAAAGGGGGT | 1.01 ± 0.047
AGAGCCACTG | 1.01 ± 0.024
CGTAATAGAT | 1.02 ± 0.026
CACCAGTGCT | 1.621 ± 0.0094
CGTCTGGGCG | 0.957 ± 0.097
TTATAAGAGT | 0.987 ± 0.025
AATAGTGGGT | 1 ± 0.013
GTGGGCAGCG | 0.9666 ± 0.0047
ACTTTGGTTA | 1.04 ± 0.042
TGATTGAGTT | 1 ± 0.016
TGAGTTAGGG | 0.985 ± 0.017
ATAAGTTTGG | 1.02 ± 0.033
TTTTTGCTTG | 0.98 ± 0.029
GCGCTGCATT | 1.06 ± 0.037
CAAGATGGTC | 0.987 ± 0.051
ATTCACCCGC | 1.48 ± 0.13
TGTGTTTTCG | 1 ± 0.014
